Measurements taken from patent US20120039906A1.

Molecular target: PD-1 Ig fusion protein (extracellular region of human PD-1, aa 1 to 152, fused to the Fc fragment of human IgG1) (human) (UniProt Q15116)
Experiment: SPR (Biacore), 1:1 Langmuir model, PD-L2 Ig over immobilised PD-1 Ig; bivalent analyte, filing calls it most likely an avidity value

Chain of PD-1 Ig fusion protein (extracellular region of human PD-1, aa 1 to 152, fused to the Fc fragment of human IgG1) (human) (Q15116 other isoform, or with tags, fused parts or gaps limits assumed, form in doubt): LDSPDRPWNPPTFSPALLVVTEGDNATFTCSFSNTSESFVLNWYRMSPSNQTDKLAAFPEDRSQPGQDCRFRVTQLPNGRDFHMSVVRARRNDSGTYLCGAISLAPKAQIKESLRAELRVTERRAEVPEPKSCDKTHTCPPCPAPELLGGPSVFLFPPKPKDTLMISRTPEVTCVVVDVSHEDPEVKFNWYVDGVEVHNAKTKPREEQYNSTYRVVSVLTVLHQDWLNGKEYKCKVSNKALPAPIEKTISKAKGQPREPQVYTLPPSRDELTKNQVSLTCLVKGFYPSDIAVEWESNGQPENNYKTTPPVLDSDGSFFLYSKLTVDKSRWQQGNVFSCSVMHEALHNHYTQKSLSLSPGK

“PD-L2 Ig fusion protein (extracellular portion of human PD-L2 fused to the Fc fragment of human IgG1) (from UniProt Q9BQ51 20-220) (Fc fusion)” was tested. Which Kd did it give?
The Kd was 9.97 nM.
